From the supplement of paper PMC12042874
± gives the uncertainty stated by the source.

Test: amyloid nucleation score (Sup35N fusion, yeast selection) (log enrichment); library NNK3; higher = more nucleation; inactive = no reads after selection
Method in brief: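 The nucleation score equals the log enrichment of output over input reads from DiMSum, centred on the mode score of non-aggregating sequences. It was computed only for sequences with 100 or more input reads. The reads came from Illumina sequencing of plasmid inserts from psi-negative yeast expressing Sup35N fused to peptides of 20 random codons, induced with 100 μM copper sulfate for 24 hours and grown 7 days at 30°C without adenine and uracil.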

Row | Substance | amyloid nucleation score
1 | IYLASSLNRILISEQSILPG | inactive
2 | IYLDFNASWLACNKLICLRN | 1.01 ± 0.13
3 | IYLKYSSYRNSLIILAVD | inactive
4 | IYLNFNKILLMILQIQLWGN | -0.19 ± 0.64
5 | IYMSRKSLVMDVWQRHRDKE | inactive
6 | IYNTGHSSRYLRTPVFAWSE | inactive
7 | IYPMLW | -0.428 ± 0.62
8 | IYQWTEFCGRIFQSCRMVLC | inactive
9 | IYRGHVRQKELFCHRREIQW | inactive
10 | IYSIVFFSRSLTVRVFGAHY | inactive
11 | IYSLYRCPFAVCLSSNWSCF | 1.78 ± 0.11
12 | IYSRVSRLIH | inactive
13 | IYSVVGCWKPSSVSDMAGLL | inactive
14 | IYSWTGLSTTLKFLGMSLLL | -0.218 ± 0.71
15 | IYTNWYEFRV | inactive
16 | IYVRAFRWFMNKVTSTAWTI | inactive
17 | IYVTIEFASIVCSCWESLDR | -0.091 ± 0.8
18 | IYYHIETSSAVASWYWRCAT | inactive
19 | IYYSRHEYSDCV | inactive
20 | KAPRMVLLRSGIVMLAHSEN | inactive
21 | KASHWV | inactive
22 | KASLPNR | inactive
23 | KATLRCCEPYVNDMVVANLK | inactive

Row | Substance | amyloid nucleation score
24 | KCAQEYGEVLS | -0.591 ± 0.8
25 | KCDEDCYAFDVYLSMGYDVS | inactive
26 | KCIQWTGRDAYFEICYKQLD | 1.12 ± 0.11
27 | KCMAI | inactive
28 | KCMCNLRSMFASCLYTCVVI | inactive
29 | KDFIMHNILYMRRWAFTPLA | inactive
30 | KDLRYTVFEVWDKYWPLTGL | inactive
31 | KDPEVQVRK | inactive
32 | KFGCSYTNYSITSPDNPSC | inactive
33 | KFGWWLFDSVSDTNLWYRRS | inactive
34 | KFKSRGRSTMLLVFNIVWRV | -0.476 ± 0.42
35 | KFNVFPIHGALWTCSVSAYH | inactive
36 | KFPWT | inactive
37 | KFRWVFYFGSAMEVREGSEF | -0.141 ± 0.45
38 | KFSCSDNPE | inactive
39 | KFVLETFCHSKPRLVLVNHD | inactive
40 | KGGTLRRLTLSGTGTSQPSE | inactive
41 | KGHDAHVAVRVFTGGGLV | inactive
42 | KGSHFFAIFGW | inactive
43 | KGYSRYQSVHRSNRELYNQA | -0.563 ± 0.64
44 | KHMSHRCILMLSPYSDRNIM | inactive
45 | KICSIVPLYIRGGHSLGSVV | inactive
46 | KIFRIYICDCELYHTNGMWA | 1.56 ± 0.1

Row | Substance | amyloid nucleation score
47 | KIFVSFNKSKLEVHPPLKVI | inactive
48 | KIGQSFSV | inactive
49 | KIGSLVKECCGLPVYYALLK | inactive
50 | KISMSRVVFDNSSTGTIEGQ | inactive
51 | KIWYLSIYVYFYVYYLDGSL | inactive
52 | KKQGSWRKNITISRVCVVLG | inactive
53 | KKYFSVRWVTFWISRV | inactive
54 | KLFWMIVCGVLNLNSNNYGG | 2.57 ± 0.084
55 | KLGKESRSFLMTTRNVDRRF | 1.43 ± 0.11
56 | KLHPTYLCNQNPRELWLITY | inactive
57 | KLICKERYVVYSVILVLKEL | inactive
58 | KLILFLTRVFRSFQVSWRQF | inactive
59 | KLMLHNEYMPGVQLLLNQYK | 0.436 ± 0.46
60 | KLSLMAVNLSWIYFCL | 0.182 ± 0.27
61 | KLSWTPRLLNSYSLLEYVQD | inactive
62 | KLYLLLLYFLDMTVFWFVAV | inactive
63 | KLYNLFWNVETMVERLLLVA | inactive
64 | KMQCPNYACGCKDCVYTNFY | inactive
65 | KMTFSWSLHHYCKP | 1.08 ± 0.19
66 | KNLKSVSFGRRYAFNSFVFL | 1.25 ± 0.11
67 | KNPTILAFSLGVRGETNRCV | inactive
68 | KNWYKVMSRYYKC | 0.338 ± 0.38
69 | KPNFEPSLAW | inactive

Row | Substance | amyloid nucleation score
70 | KPVFYGPIRCFISVCI | 1.84 ± 0.09
71 | KQGPWVDTVTVMKTFRMSIN | inactive
72 | KQSLSMVWRKSDLALKVMVG | 0.904 ± 0.15
73 | KQVTVNTLMSPPVRYL | inactive
74 | KRDLSVIGKCTLNNVSNHCA | inactive
75 | KRFHMYVHGSDMEVLLAGKC | inactive
76 | KRGNSANPS | inactive
77 | KRLTMDLFDNCPMLYECEFT | inactive
78 | KRLVGLYIYTGMWLKLLQLV | inactive
79 | KRSNISV | inactive
80 | KRTQDCMDRPRMLAAKASPS | inactive
81 | KRWTQINYFDWRLLRFATRS | inactive
82 | KRYLGLMQRDVWISDAKLSA | inactive
83 | KRYMIPKIYERNENYSFEQI | inactive
84 | KRYNNIAYFVYLLFSLGVTT | inactive
85 | KSASKVGLMKAYRNASRTVI | inactive
86 | KSCLGKRLISSFC | inactive
87 | KSESEGFNNSIRPWCMFCVS | inactive
88 | KSFSHGLFDLRGKRTVEICL | inactive
89 | KSGRSCYIFVYMWQLTVYSG | inactive
90 | KSLHTGGGLDSRYGS | inactive
91 | KSNSSLTRRARYETSTSSSP | inactive
92 | KSNYEGTFGRHVLGPLKNKW | -0.463 ± 1.8

Row | Substance | amyloid nucleation score
93 | KSRTIQECMAATYVSVFECF | inactive
94 | KSYISVRK | 0.57 ± 0.18
95 | KTASRCLYCLMKKKDCLPRV | inactive
96 | KTIFSDVFYLRALWCSLNRG | inactive
97 | KTISC | inactive
98 | KTKFVTSLNFTVHFKCWNCD | 1.51 ± 0.097
99 | KTMDPILQFFERSTASLLLI | inactive
100 | KTWYWVFMLAVFRFIYLNMR | inactive
101 | KTYFRHTVRNTSSV | 1.52 ± 0.11
102 | KVADSVIEFMLTCWGIRQDS | inactive
103 | KVFFVRTIIKVRVAGCSVRV | inactive
104 | KVGSKVLEIFINTHYNWYCR | 0.145 ± 0.53
105 | KVIDSLVVSRLLTCASRHIR | 1.32 ± 0.077
106 | KVLASCLSHFVDPNLEVSFH | inactive
107 | KVLVFGFQCFIL | 1.56 ± 0.08
108 | KVSMYRVVWCPASFGVIIVA | inactive
109 | KVVARYRRKVCYNWHISEEK | inactive
110 | KVYRKKPIGYVECLLSPLKA | inactive
111 | KWGSATTCFI | 0.067 ± 0.31
112 | KWNNCDF | inactive
113 | KWRYLFDMSW | inactive
114 | KWSKILAPFILFLKLKSNCS | inactive
115 | KWSNQGRCEHSVNMFHREWR | 1.64 ± 0.09

Row | Substance | amyloid nucleation score
116 | KYFPVAQYGRIWVRRPRGQV | inactive
117 | KYFRARYHSPSEWLWSMIDW | inactive
118 | KYLGMMVKNANMLALCYAGW | -0.279 ± 0.68
119 | KYLVALVRVRQSNLHS | inactive
120 | KYRPLKSCAHVMRDSIKSGC | inactive
121 | KYRQIMNGFKFSRANSFVTV | inactive
122 | KYVLSKI | inactive
123 | KYWICVFFVMIRDPIAYWDD | inactive
124 | LADNYVTCKS | inactive
125 | LAEGYVSVIRIYKRGWNEDV | inactive
126 | LAGTTSASWGGS | inactive
127 | LAKCVSVHSIYIHDSICPVG | inactive
128 | LALLTAADARD | inactive
129 | LALWFRGPLLLLSSLI | inactive
130 | LARDYSFATHSGLRRKSLKQ | inactive
131 | LARMTCYSDCGSNRGLRRVG | inactive
132 | LASPVNETDTLHRALQMLSK | inactive
133 | LAWIVCDCIGQCCTFIVRVW | inactive
134 | LCALP | inactive
135 | LCCFCCDPHLR | 2.64 ± 0.061
136 | LCFNLYMFCSYVCGMAIKSL | inactive
137 | LCGDYGV | inactive
138 | LCHICDAVTSYLLP | -0.406 ± 1

Row | Substance | amyloid nucleation score
139 | LCKDLDTSCVGSFYIFRQKG | inactive
140 | LCLRSVRLCGKAYSINDRRH | inactive
141 | LCVPTSDRELGYRWFRAEWH | inactive
142 | LDACILRFARCLEGVDYADK | inactive
143 | LDDEVEQSTAASDIRLLSTL | inactive
144 | LDEGPPSAWVFATKTNFCES | inactive
145 | LDFSPWKFSTVGSRSSGMNG | inactive
146 | LDILTDAFQLLCNKKHNNKP | inactive
147 | LDKEFAYIYSYC | inactive
148 | LDLFVV | inactive
149 | LDLLSAVGGVQRLIIHCCWM | inactive
150 | LDNDSWTRGLRGYLTYLRER | inactive
151 | LDNISVLIIFL | 1.34 ± 0.11
152 | LDPEP | inactive
153 | LDRVSTVGSKNLFQRCCKIS | inactive
154 | LDVSLVVVMPIGLRTEWMSG | inactive
155 | LDVVYRDIIDFRVLVESVYF | inactive
156 | LDWDFGHDRVRFPERHT | inactive
157 | LDWLICSWGN | inactive
